Data reported in paper PMC11573612 (Molecular Therapy, 2024).

What was measured:
[1] = biological target: T1, PD-L1 of the PD-1 [Biotinylated]: PD-L1 Inhibitor Screening ELISA Assay Pair (Acro Biosystems EP-101) (UniProt Q9NZQ7 19-238); assay: ELISA; competition: PD-1 [Biotinylated]: PD-L1 Inhibitor Screening ELISA Assay Pair (Acro Biosystems EP-101) with recombinant VSTM2A as inhibitor; conditions: both partners purified
T1 construct: PD-L1 of a bought ELISA assay pair; The construct is described only by the kit's manufacturer; source: bought: Acro Biosystems (EP-101 assay pair)
T1 sequence (Q9NZQ7 19-238): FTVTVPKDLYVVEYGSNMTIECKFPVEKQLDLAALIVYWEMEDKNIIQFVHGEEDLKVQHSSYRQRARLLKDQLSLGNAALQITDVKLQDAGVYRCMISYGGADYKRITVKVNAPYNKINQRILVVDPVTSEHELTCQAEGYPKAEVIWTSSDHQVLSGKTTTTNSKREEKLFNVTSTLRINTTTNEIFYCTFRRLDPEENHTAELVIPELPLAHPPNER

[2] = biological target: T2, Recombinant human PD-L1 Fc chimera protein (R&D Systems 156-B7) (human, UniProt Q9NZQ7 19-238); assay: ELISA; titration ELISA; 5 μg/mL PD-L1 Fc chimera immobilised on the plate at 4 °C for 12 h, blocked with 5% BSA; VSTM2A serial dilution (start 100 μg/mL) for 2 h at room temperature; fixed with DTSSP; pNPP, OD405; one-site specific binding fit; apparent KD; conditions: both partners purified
T2 construct: PD-L1, human, recombinant Fc chimera; also called recombinant human PD-L1 chimera protein; source: bought: R&D Systems (156-B7)
T2 sequence (Q9NZQ7 19-238, change not shown): as the sequence (Q9NZQ7 19-238) above

B1: Recombinant human VSTM2A His-tag protein (R&D Systems 10037-VT-050, carrier-free) (ligand, UniProt Q8TAG5 25-236, looked up)
chain: SQAKFTEFPRNVTATEGQNVEMSCAFQSGSASVYLEIQWWFLRGPEDLDPGAEGAGAQVELLPDRDPDSDGTKISTVKVQGNDISHKLQISKVRKKDEGLYECRVTDANYGELQEHKAQAYLKVNANSHARRMQAFEASPMWLQDMKPRKNVSAAIPSSIHGSANQRTHSTSSPQVVAKIPKQSPQSGARIATSHGLSVLLLVCGFVKGALL
notes: VSTM2A, human, recombinant; also called recombinant VSTM2A; VSTM2A recombinant protein; source: bought: R&D Systems (10037-VT-050, carrier-free version)
[1]
  IC50: 4.51 nM
[2]
  Kd: 0.7 to 2.5 nM
